Experiments:
[1] = Triton X-100 lysis, sucrose gradient flotation, COS-1; details: glycan lost; control: wild type
[2] = confocal colocalisation with GFP-Rab4, transfected HeLa/COS-1; details: glycan lost; control: wild type

B1: human ClC-6 (hClC-6a): AAA-hClC-6 (protein)
parent chain: MAGCRGSLCCCCRWCCCCGERETRTPEELTILGETQEEEDEILPRKDYESLDYDRCINDPYLEVLETMDNKKGRRYEAVKWMVVFAIGVCTGLVGLFVDFFVRLFTQLKFGVVQTSVEECSQKGCLALSLLELLGFNLTFVFLASLLVLIEPVAAGSGIPEVKCYLNGVKVPGIVRLRTLLCKVLGVLFSVAGGLFVEKEGPMIHSGSVVGAGLPQFQSISLRKIQFNFPYFRSDRDKRDFVSAGAAAGVAAAFGAPIGGTLFSLEEGSSFWNQGLTWKVLFCSMSATFTLNFFRSGIQFGSWGSFQLPGLLNFGEFKCSDSDKKCHLWTAMDLGFFVVMGVIGGLLGATFNCLNKRLAKYRMRNVHPKPKLVRVLESLLVSLVTTVVVFVASMVLGECRQMSSSSQIGNDSFQLQVTEDVNSSIKTFFCPNDTYNDMATLFFNPQESAILQLFHQDGTFSPVTLALFFVLYFLLACWTYGISVPSGLFVPSLLCGAAFGRLVANVLKSYIGLGHIYSGTFALIGAAAFLGGVVRMTISLTVILIESTNEITYGLPIMVTLMVAKWTGDFFNKGIYDIHVGLRGVPLLEWETEVEMDKLRASDIMEPNLTYVYPHTRIQSLVSILRTTVHHAFPVVTENRGNEKEFMKGNQLISNNIKFKKSSILTRAGEQRKRSQSMKSYPSSELRNMCDEHIASEEPAEKEDLLQQMLERRYTPYPNLYPDQSPSEDWTMEERFRPLTFHGLILRSQLVTLLVRGVCYSESQSSASQPRLSYAEMAEDYPRYPDIHDLDLTLLNPRMIVDVTPYMNPSPFTVSPNTHVSQVFNLFRTMGLRHLPVVNAVGEIVGIITRHNLTYEFLQARLRQHYQTI
Q: What does the source list for B1?
A: other: detergent-resistant membrane association [1]: no change; localisation_or_trafficking [2]: no change
